One series concerns liver. Particulars: human, in vivo; cited from earlier work.
The subject of another series is rat and rabbit liver. The experiment in a line: In vivo animal hepatic imaging after intravenous injection of labelled compounds. On the procedure: Adult male Wistur rats weighing about 400g and male New Zealand rabbits weighing about 2.5kg. were used in the in vivo animal imaging studies. After intravenous injection of the labelled compounds (100-400uCi) as a bolus into experimental animals, hepatic imaging was performed on a PhoGamma III scintillation camera (Nuclear Chicago Corp., Des Plaines, Ill.) using a 140keV parallel collimator. Images were recorded on Polaroid type 55 film.

The conditions of series [1]: in vivo; cited from earlier work.

Consider `O=C(O)c1c(Cl)c(Cl)c(Cl)c(Cl)c1-c1c2cc(I)c(=O)c(I)c-2oc2c(I)c(O)c(I)cc12` [^131 I-rose bengal], for which, in the series on liver, the “20:5 minutes ratio of blood ^131 I-rose bengal concentrations” value is reported as 0.39-0.51, the “time by which biliary excretion has begun” value is not above 20 min and the “time for maximal concentration in the liver” value is approximately 30 min.

B1: Radiolabelled DTBG: Radiolabelled desialylated thyroxine-binding globulin; radiolabel not specified at that place (protein, UniProt P05543 21-415, looked up)
Thyroxine-binding globulin: ASPEGKVTACHSSQPNATLYKMSSINADFAFNLYRRFTVETPDKNIFFSPVSISAALVMLSFGACCSTQTEIVETLGFNLTDTPMVEIQHGFQHLICSLNFPKKELELQIGNALFIGKHLKPLAKFLNDVKTLYETEVFSTDFSNISAAKQEINSHVEMQTKGKVVGLIQDLKPNTIMVLVNYIHFKAQWANPFDPSKTEDSSSFLIDKTTTVQVPMMHQMEQYYHLVDMELNCTVLQMDYSKNALALFVLPKEGQMESVEAAMSSKTLKKWNRLLQKGWVDLFVPKFSISATYDLGATLLKMGIQHAYSENADFSGLTEDNGLKLSNAAHKAVLHIGEKGTEAAAVPEVELSDQPENTFLHPIIQIDRSFMLLILERSTRSILFLGKVVNPTEA
modifications: desialylated; radiolabelled
notes: radiolabel not specified at that place
B1: the “liver imaging after intravenous injection” value in the series on rat and rabbit liver (scintillation camera) was “effective as a liver imaging agent”.

B2: ^131 I-DTBG: ^131 I labelled desialylated thyroxine-binding globulin (protein, UniProt P05543 21-415, looked up)
Thyroxine-binding globulin: B1 Thyroxine-binding globulin
modifications: 131I label; desialylated
As to B2, in the series on rat and rabbit liver (in vivo), the “clearance of the iodine label by the kidneys noted, time post-injection” value is given as 20 or 30 minutes; the “uptake and concentration in the liver” value is given as “rapidly taken up by the hepatocytes”.

B3: DTBG: desialylated thyroxine-binding globulin from pooled human serum (protein, UniProt P05543 21-415, looked up)
Thyroxine-binding globulin: B1 Thyroxine-binding globulin
modifications: desialylated
With B3, the “half-life in the circulation” value in series [1] was 4 to 5 min.
